Experiment in all cases: radioligand binding; whole-cell heterologous competition on transfected COS-7 cells: 1 nM 3H-Ang II tracer and increasing unlabeled SII Ang II, 3 h at 4°C; pKi calculated from Ang II KD values of experiments run in parallel
What all share (conditions): one partner purified

The target of test [1] is T1, FLAG-tagged rat AT1a receptor N298A truncated after serine 331 (N298A 331Δ) (rat, UniProt P25095 1-331, N298A).
T1 construct: source: COS-7, transiently transfected, on whole cells; not shown: FLAG, N-terminal, kept
T1 sequence (looked up): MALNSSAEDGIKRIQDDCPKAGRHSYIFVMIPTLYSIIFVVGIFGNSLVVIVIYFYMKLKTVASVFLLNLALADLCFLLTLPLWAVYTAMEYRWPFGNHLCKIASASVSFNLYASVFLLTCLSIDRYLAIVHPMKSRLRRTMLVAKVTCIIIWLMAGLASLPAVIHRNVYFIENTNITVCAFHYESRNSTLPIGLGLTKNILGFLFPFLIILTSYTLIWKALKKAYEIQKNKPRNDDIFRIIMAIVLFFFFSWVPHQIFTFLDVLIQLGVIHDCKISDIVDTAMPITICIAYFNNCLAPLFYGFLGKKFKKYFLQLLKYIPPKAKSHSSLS

The target of test [2] is T2, FLAG-tagged rat AT1a receptor D74N truncated after serine 331 (D74N 331Δ) (rat, UniProt P25095 1-331, D74N).
T2 construct: source: COS-7, transiently transfected, on whole cells; not shown: FLAG, N-terminal, kept
T2 sequence (looked up): T1 sequence (looked up) with D74N, A298N

The target of test [3] is T3, FLAG-tagged rat AT1a receptor N298A, full length (rat, UniProt P25095 1-359, N298A).
T3 construct: Angiotensin II type 1a receptor (AT1aR), rat, full length; also called N298A (7.49); source: COS-7, transiently transfected, on whole cells; not shown: FLAG, N-terminal, kept
T3 sequence (looked up): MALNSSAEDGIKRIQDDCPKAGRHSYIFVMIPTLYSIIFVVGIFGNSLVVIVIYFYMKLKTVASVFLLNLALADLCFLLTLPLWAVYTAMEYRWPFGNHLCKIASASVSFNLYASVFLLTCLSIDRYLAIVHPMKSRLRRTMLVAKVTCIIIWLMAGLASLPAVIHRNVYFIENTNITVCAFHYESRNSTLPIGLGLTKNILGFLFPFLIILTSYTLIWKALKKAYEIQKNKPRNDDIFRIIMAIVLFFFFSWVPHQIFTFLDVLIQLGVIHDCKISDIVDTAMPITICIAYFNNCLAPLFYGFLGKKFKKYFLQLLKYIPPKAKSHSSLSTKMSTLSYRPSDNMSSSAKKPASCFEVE

In test [4] the target is T4, FLAG-tagged rat AT1a receptor D74N, full length (rat, UniProt P25095 1-359, D74N).
T4 construct: Angiotensin II type 1a receptor (AT1aR), rat, full length; also called D74N (2.50); source: COS-7, transiently transfected, on whole cells; not shown: FLAG, N-terminal, kept
T4 sequence (looked up): T3 sequence (looked up) with D74N, A298N

Where a chain is given by its changes, count along the chain named.

As a reminder, the pKi is the Ki on a negative log10 scale, so that one unit is a factor of ten. On to GRVIIHPI (sarcosine at position 1 (Sar1)) [Sar1-Ile4-Ile8 (SII) Ang II], for which the pKi in test [1] is 6.2; in test [2] it was 6.8; in test [3], 6.2; in test [4] it was 6.6.

Source of the values: paper PMC2994726 (PLoS ONE, 2010).
